Entries after “also recorded” stand apart in the source; their conditions may differ. Blank lines part the entries; values can stand above or below the molecule they belong to.
Experiments:
Mouse LAMP1 = target: T1, Mouse LAMP1 (Mus musculus, UniProt P11438); assay: ELISA on mouse LAMP1 extracellular domain; assay type: binding
T1 construct: made in house; host or cells: HEK293 (293-F), transient expression, IMAC-purified
T1 sequence (P11438 with tags, fused parts or gaps): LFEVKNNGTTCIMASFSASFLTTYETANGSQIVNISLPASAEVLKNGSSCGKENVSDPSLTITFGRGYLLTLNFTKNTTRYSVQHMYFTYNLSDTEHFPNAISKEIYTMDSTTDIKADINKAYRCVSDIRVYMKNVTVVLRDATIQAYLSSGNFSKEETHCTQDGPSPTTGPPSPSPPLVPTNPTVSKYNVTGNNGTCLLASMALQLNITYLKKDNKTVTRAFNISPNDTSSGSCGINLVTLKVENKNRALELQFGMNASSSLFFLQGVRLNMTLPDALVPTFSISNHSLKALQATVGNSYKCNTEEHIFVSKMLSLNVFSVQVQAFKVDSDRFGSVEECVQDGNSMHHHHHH
Text: The high level of glycosylation of the antigen required a specific approach to determine the binding site of the anti-LAMP1 mAbs on LAMP1. […] This absence of binding was used to design several chimeric LAMP1 proteins in which one or several of the LAMP1 domains (Loop1-Loop4) in the human construct were replaced by the murine counterpart. The absence of binding once the binding site of the antibody was replaced by the murine counterpart allowed for identification of the antibody binding side.
Secreted LAMP1 proteins described in example 6.2 were used to identify the binding domain to anti-LAMP1 mAbs by ELISA.

[1] = target: T2, LAMP1 (SEQ ID NO: 28 protein) (Homo sapiens, UniProt P11279); assay: Affinity to LAMP1 by SPR (BIAcore 2000); assay type: binding
T2 construct: made in house; host or cells: HEK293 (293-F), transient expression, IMAC-purified
T2 sequence (P11279 with tags, fused parts or gaps): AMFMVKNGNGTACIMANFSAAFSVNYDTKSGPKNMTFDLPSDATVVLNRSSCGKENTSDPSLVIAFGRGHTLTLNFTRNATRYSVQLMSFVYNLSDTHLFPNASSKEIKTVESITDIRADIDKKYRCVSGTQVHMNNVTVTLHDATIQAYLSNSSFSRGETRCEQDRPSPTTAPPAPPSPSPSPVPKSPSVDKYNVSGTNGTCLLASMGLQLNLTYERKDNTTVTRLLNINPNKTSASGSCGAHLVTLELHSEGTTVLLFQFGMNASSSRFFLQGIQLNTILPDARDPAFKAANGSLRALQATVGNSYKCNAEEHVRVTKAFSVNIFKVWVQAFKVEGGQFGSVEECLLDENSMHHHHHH
Procedure: The use of surface plasmon resonance to determine is known to the skilled in the art. In one example the binding kinetics of for example the murine, chimer or humanized anti-LAMP1 mAbs were determined by surface plasmon resonance assay using typically a BIAcore 2000 (BIAcore Inc., Uppsala, N.J.). Therefore, for example a CM5 BIAcore biosensor chip was docked into the instrument and activated with for example 70 μL of 1:1 NHS/EDC at room temperature. Typically, a mouse anti-αhuman Fc IgG1 (BIAcore #BR-1008-39) and rabbit anti-αmurine Fc IgG1 (BIAcore #BR-1008-38) (50 μg/mL in 1 M acetate buffer, pH5) were immobilized on the activated chips in all flow cells. The immobilization was carried out at a flow rate of for example 10 μL/min up to saturation. The chip was then blocked by for example injection of 70 μL of ethanolamine-HCl, pH 8.5, followed by one wash with 3 M MgCl2 for anti-αhuman Fc IgG1 and one wash with 10 mM Glycine-HCl pH 1.7 for anti-αmurine Fc IgG1. To measure the binding of for example anti-LAMP1 mAbs to LAMP1, antibodies were used at 1-5 μg/mL in BIAcore running buffer (HBS-EP). The antigen for example (Sequence ID No 28 protein produced as described in example 6.2) was injected from for example 1 to 256 nM. Following completion of the injection phase, dissociation was monitored in a BIAcore running buffer at the same flow rate for typically 600 sec. The surface was typically regenerated between injections using for example 2×5 μL 3 M MgCl2 (2×30 s) or anti-αhuman Fc IgG1 and 1×30 μL 10 mM Glycine-HCl pH 1.7 for anti-αmurine Fc IgG1 (180 s). Individual sensorgrams were typically analyzed using BIAevaluation software.
The binding kinetics of the murine, chimer or humanized anti-LAMP1 mAbs were determined by surface plasmon resonance assay using a BIAcore 2000 (BIAcore Inc., Uppsala, N.J.). Briefly, a CM5 BIAcore biosensor chip was docked into the instrument and activated with 70 μL of 1:1 NHS/EDC at room temperature. A mouse anti-αhuman Fc IgG1 (BIAcore #BR-1008-39) and rabbit anti-αmurine Fc IgG1 (BIAcore #BR-1008-38) (50 μg/mL in 1 M acetate buffer, pH5) were immobilized on the activated chips in all flow cells. The immobilization was carried out at a flow rate of 10 μL/min up to saturation. The chip was then blocked by injection of 70 μL of ethanolamine-HCl, pH 8.5, followed by one wash with 3 M MgCl2 for anti-αhuman Fc IgG1 and one wash with 10 mM Glycine-HCl pH 1.7 for anti-αmurine Fc IgG1. To measure the binding of anti-LAMP1 mAbs to LAMP1, antibodies were used at 1-5 μg/mL in BIAcore running buffer (HBS-EP). The antigen (SEQ ID NO: 28 protein produced as described in example 6.2) was injected from 1 to 256 nM. Following completion of the injection phase, dissociation was monitored in a BIAcore running buffer at the same flow rate for 600 sec. The surface was regenerated between injections using 2×5 μL 3 M MgCl2 (2×30 s) or anti-αhuman Fc IgG1 and 1×30 μL 10 mM Glycine-HCl pH 1.7 for anti-αmurine Fc IgG1 (180 s). Individual sensorgrams were analyzed using BIAevaluation software.

Kd [1]: 63.5 nM
ka [1]: 63300 M⁻¹ s⁻¹
kd [1]: 0.00402 s⁻¹
B1: MAb2: murine monoclonal anti-LAMP1 antibody, VH SEQ ID NO: 8, VL SEQ ID NO: 12 (antibody, V domains shown)
VH: QVQLQQSAAELARPGASVKMSCKASGYTFTSYTMHWVKQRPGQGLEWIGYFNPSSGYPEYNQKFKDKTTLTADKSSNTAFIQLNSLTSEDSAVYYCSRGYYYGSRGYALDFWGQGASVTVSS
VL: NIVLTQSPVSLAVSLGQRATISCRASESVDINGNTFMHWYQQKPGQSPKLVIYAASNIESGVPARFSGSGSSTDFTFTIDPVEADDVATYYCQQNIEDPWTFGGGTKVEIK
modifications: antibod fragment; antibody fragment
EC50 (nM) Mouse LAMP1 (Mouse LAMP1): do not show any binding; also recorded: No binding

Kd [1]: 4.8 nM
ka [1]: 148000 M⁻¹ s⁻¹
kd [1]: 0.00071 s⁻¹
B2: MAb1: murine monoclonal anti-LAMP1 antibody, VH SEQ ID NO: 1, VL SEQ ID NO: 5 (antibody, V domains shown)
VH: QVQLQQSGAELVKPGASVKMSCKASGYIFTNYNIHWVKKSPGQGLEWIGAIYPGNGDAPYSQKFKDKATLTADKSSSTTYMQLSRLTSEDSAVYYCVRANWDVAFAYWGQGTLVSVSA
VL: DIQMTQSPPSLSASLGGKVTITCKASQDIDRYMAWYQDKPGKGPRLLIHDTSTLQPGIPSRFSGSGSGRDYSFSISNLEPEDIATYYCLQYDNLWTFGGGTKLEIK
modifications: Antibody Fragment; antibody fragment
EC50 (nM) Mouse LAMP1 (Mouse LAMP1): do not show any binding; also recorded: No binding

From US9809653B2, “Anti-LAMP1 antibodies and antibody drug conjugates, and uses thereof” (SANOFI, priority 2012, dated 2017)
